Results on one molecule are retold here after article PMC10086585 (2023).

For this test, the target named is human recombinant netrin‐1, on AHC biosensors (human, UniProt O95631 25-604). Put plainly: BLI. (Biolayer interferometry detects binding as a change in optical thickness at a sensor tip.)

B1: fibronectin leucine‐rich transmembrane protein (FLRT1), recombinant human (natural protein)
chain: IDSTTCPSVCRCDNGFIYCNDRGLTSIPADIPDDATTLYLQNNQINNAGIPQDLKTKVNVQVIYLYENDLDEFPINLPRSLRELHLQDNNVRTIARDSLARIPLLEKLHLDDNSVSTVSIEEDAFADSKQLKLLFLSRNHLSSIPSGLPHTLEELRLDDNRISTIPLHAFKGLNSLRRLVLDGNLLANQRIADDTFSRLQNLTELSLVRNSLAAPPLNLPSAHLQKLYLQDNAISHIPYNTLAKMRELERLDLSNNNLTTLPRGLFDDLGNLAQLLLRNNPWFCGCNLMWLRDWVKARAAVVNVRGLMCQGPEKVRGMAIKDITSEMDECFETGPQGGVANAAAKTTASNHASATTPQGSLFTLKAKRPGLRLPDSNIDYPMATGDGAKTLAIHVKALTADSIRITWKATLPASSFRLSWLRLGHSPAVGSITETLVQGDKTEYLLTALEPKSTYIICMVTMETSNAYVADETPVCAKAETADSYGPTTTLNQEQNAGPMASLP
For B1, the Kd amounted to 20.7 nM.

The Kd is a measure of binding affinity in units of concentration.
